From patent US20190309044A1, “POLYPEPTIDES AND USES THEREOF AS A DRUG FOR TREATMENT OF AUTOIMMUNE DISORDERS” (Compugen Ltd., priority 2017, published 2019)

How the values were obtained:
[1] = system: SJL/J mice; assay: Trafficking of transferred cells into the CNS by flow cytometry, adoptive transfer R-EAE; format: in vivo, mouse; settings: day +10 post cell transfer
Protocol: PLP139-151 sensitized cells were generated as described in Materials and Methods (cell counts in the reactivation culture are presented in Table 2) and labeled with PBSE (4 uM) before transfer to naïve mice. In study “Cgen data” (FIG. 12), disease was induced in recipient mice (n=10 per group) by i.v. transfer of 5×10^6 blast cells to each recipient mouse. A relatively large number of transferred cells were used in order to allow detection of the transferred cells by flow cytometry analysis at the end of the study. Mice were split into Control Ig and C1ORF32 ECD-Fc (SEQ ID NO:42) treatment groups, receiving 100 ug/dose intraperitoneal injection three times per week for 2 weeks. On Day +14 after cell transfer, 5 representative mice from each group were selected for analysis of trafficking of transferred cells into the CNS. Spleens, cervical lymph nodes, and CNS were collected, and the number of PBSE- or PBSE+/CD45+/CD3+/CD4+ T cells was analyzed by flow cytometric analysis.
An additional experiment (designated “MYC48 FACS”, FIG. 13) was performed using an alternative staining follow-up approach. […] To evaluate C1ORF32 ECD-Fc (SEQ ID NO:42) effect on immune cell trafficking to the CNS, spleens, cervical lymph nodes, and CNS cells collected form 5 mice on day +10 post cell transfer, and the number of transferred CD45hi PBSE+ or GFP+ cells was analyzed by flow cytometry. […]

[2] = system: male DBA-1 mice; assay: Established collagen induced arthritis (CIA), macroscopic and histological scores; format: in vivo, mouse
Protocol: Bovine type II collagen (CII) (RUNMC in house production, batch 03-04-08) at a concentration of 2 mg/ml in acetic acid 0.05M was emulsified in equal volumes of Freund's complete adjuvant (2 mg/ml of Mycobacterium tuberculosis strain H37Ra; Difco, Detroit, Mich.).
On day 0, 10-12 week old male DBA-1 mice (Janvier Elevage, France) (n=95) were immunized i.d. at the base of the tail with 100 μg of bovine CII. On day 21, mice received an intraperitoneal booster injection of 50 μg of CII dissolved in phosphate buffered saline (PBS), and the onset of arthritis occurred a few days after this booster.
Joint inflammation in each paw was scored visually, using a scale of 0-2 per paw with a maximal score of 8 per animal: 0=non inflamed, 1=mild inflammation, 1.5=marked inflammation, and 2=severe inflammation. Scoring was performed three times a week.
Treatment was started in established CIA early after onset of disease (i.e. therapeutic regimen), when the macroscopic scores per animal were between 0.25 and 1.25 (on a scale of 0-8). […] Histology was scored for inflammation and destruction on an arbitrary scale of 0-3, for five different parameters: […]
Joints were fixed for at least 4 days in 4% formaldehyde, decalcified in 5% formic acid, and subsequently dehydrated and embedded in paraffin. […] The severity of inflammation in the joints was scored on a scale of 0-3 (0=no cells, 1=mild cellularity, 2=moderate cellularity, and 3=maximal cellularity). […] Depletion of PG was determined using an arbitrary scale of 0-3, ranging from normal, fully stained cartilage to destained cartilage, fully depleted of PGs. Chondrocyte death was scored on a scale of 0-3 ranging from no loss of chondrocyte nuclei to complete empty cartilage surface. The degree of cartilage surface erosion was scored on a scale of 0-3, ranging from no damage to complete loss of articular cartilage. […] Histopathological changes in the joint were scored on three semiserial sections of the joint spaced 70 μm apart. […]

B1: C1ORF32 ECD-Fc (SEQ ID NO:42): human-mouse fusion protein: human C1ORF32 ECD fused to mouse immunoglobulin Fc (SEQ ID NO:42) (protein)
chain: LQVTVPDKKKVAMLFQPTVLRCHFSTSSHQPAVVQWKFKSYCQDRMGESLGMSSTRAQSLSKRNLEWDPYLDCLDSRRTVRVVASKQGSTVTLGDFYRGREITIVHDADLQIGKLMWGDSGLYYCIITTPDDLEGKNEDSVELLVLGRTGLLADLLPSFAVEIMGSENLYFQGSGEPRGPTIKPCPPCKCPAPNLLGGPSVFIFPPKIKDVLMISLSPIVTCVVVDVSEDDPDVQISWFVNNVEVHTAQTQTHREDYNSTLRVVSALPIQHQDWMSGKEFKCKVNNKDLPAPIERTISKPKGSVRAPQVYVLPPPEEEMTKKQVTLTCMVTDFMPEDIYVEWTNNGKTELNYKNTEPVLDSDGSYFMYSKLRVEKKNWVERNSYSCSVVHEGLHNHHTTKSFSRTPGK
modifications: Fusion protein human C1ORF32-ECD fused to mouse IgG2a Fc
- number of total or activated transferred T cells in spleen and cervical lymph nodes [1]: No change
- clinical (macroscopic) scores of arthritis ([2]; 10 mg/kg i.p. 3x/wk 2 wks, p<0.001 vs mIgG2a): significantly reduced
- overall outcome in three CIA studies ([2]; mouse, in vivo): excellent results in two studies and weak results in one study
